Test results as given in IntAct's records for PubMed 23238393.

B1: Ubiquitin-like protein ATG12B (Arabidopsis thaliana (Mouse-ear cress)), Q9LVK3 (parent)
chain: MATESPNSVQKIVVHLRATGGAPILKQSKFKVSGSDKFANVIDFLRRQLHSDSLFVYVNSAFSPNPDESVIDLYNNFGFDGKLVVNYACSMAWG
partner: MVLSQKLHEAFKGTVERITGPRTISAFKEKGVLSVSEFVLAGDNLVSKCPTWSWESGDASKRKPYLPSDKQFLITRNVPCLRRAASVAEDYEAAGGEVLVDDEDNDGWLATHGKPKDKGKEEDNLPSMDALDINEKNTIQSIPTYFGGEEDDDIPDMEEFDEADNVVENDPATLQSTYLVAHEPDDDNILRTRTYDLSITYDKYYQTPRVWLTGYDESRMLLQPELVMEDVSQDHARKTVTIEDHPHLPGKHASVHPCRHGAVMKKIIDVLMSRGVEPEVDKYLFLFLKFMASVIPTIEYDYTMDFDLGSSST

Variants of: B1
Settings: with atg3_arath ATG3, Q0WWQ1

| Variant | effect of a mutation on the interaction |
| --- | --- |
| MATESPNSVQKIVVHLRATGGAPILKQSKFKVSGSDKFANVIDFLRRQLHSDSLFVAVNSAFSPNPDESVIDLYNNFGFDGKLVVNYACSMAWG [Y57A] | decreasing interaction |

Variants of: B1
Settings: with atg3_arath ATG3, Q0WWQ1
Remark: another data set of the same source

| Variant | effect of a mutation on the interaction |
| --- | --- |
| MATESPNSVQKIVVHLRATGGAPILKQSKFKVSGSDKFANVIDFLRRQLHSDSLFVYVNSAASPNPDESVIDLYNNFGFDGKLVVNYACSMAWG [F62A] | decreasing interaction |
